{"source": "patent US20040037843A1", "settings_in_all_cases": "remark: other sources report otherwise", "key": {"[1]": {"target": "HLA-A*0202 (human)", "assay": "competition with 125I-labelled probe peptide on purified HLA"}, "[2]": {"target": "HLA-A*0201 (human)", "assay": "competition with 125I-labelled probe peptide on purified HLA"}, "[3]": {"target": "HLA-A*0203 (human)", "assay": "competition with 125I-labelled probe peptide on purified HLA"}, "[4]": {"target": "HLA-A*0206 (human)", "assay": "competition with 125I-labelled probe peptide on purified HLA"}, "[5]": {"target": "HLA-A*0101 (human)"}, "[6]": {"target": "HLA-A*1101 (human)"}, "[7]": {"target": "HLA-A*1101 (human)", "remark": "listed apart in the source"}, "[8]": {"target": "HLA-A*0201 (human)", "assay": "competition with 125I-labeled probe peptide for purified HLA, gel filtration"}, "[9]": {"target": "HLA-A*0206 (human)", "assay": "competition with 125I-labeled probe peptide for purified HLA, gel filtration"}, "[10]": {"target": "HLA-A*6802 (human)", "assay": "competition with 125I-labeled probe peptide for purified HLA, gel filtration"}, "[11]": {"target": "HLA-A*0202 (human)", "assay": "inhibition of 125I probe peptide binding to purified HLA, gel filtration"}, "[12]": {"target": "HLA-A*0203 (human)", "assay": "inhibition of 125I probe peptide binding to purified HLA, gel filtration"}, "[13]": {"target": "HLA-A*0206 (human)", "assay": "inhibition of 125I probe peptide binding to purified HLA, gel filtration"}, "[14]": {"target": "HLA-A*6802 (human)", "assay": "inhibition of 125I probe peptide binding to purified HLA, gel filtration"}, "[15]": {"target": "HLA-A*0201 (human)", "assay": "inhibition of 125I probe peptide binding to purified HLA, gel filtration"}, "[16]": {"target": "HLA-A*0202 (human)"}, "[17]": {"target": "HLA-A*0203 (human)"}, "[18]": {"target": "HLA-A*0201 (human)"}, "[19]": {"target": "HLA-A*0206 (human)"}, "[20]": {"target": "HLA-A*6802 (human)"}, "[21]": {"target": "HLA-A*0201 (human)", "remark": "listed apart in the source"}, "[22]": {"target": "HLA-A*0203 (human)", "remark": "listed apart in the source"}, "[23]": {"target": "HLA-A*0202 (human)", "assay": "competition with 125I-labelled standard peptide for purified HLA"}, "[24]": {"target": "HLA-A*0206 (human)", "assay": "competition with 125I-labelled standard peptide for purified HLA"}, "[25]": {"target": "HLA-A*0201 (human)", "assay": "competition with 125I-labelled standard peptide for purified HLA"}, "[26]": {"target": "HLA-A*0203 (human)", "assay": "competition with 125I-labelled standard peptide for purified HLA"}, "[27]": {"target": "HLA-A*0201 (human)", "remark": "listed apart in the source"}, "[28]": {"target": "HLA-A*0203 (human)", "remark": "listed apart in the source"}, "[29]": {"target": "HLA-A*0201 (human)", "remark": "listed apart in the source"}, "[30]": {"target": "HLA-A*0203 (human)", "remark": "listed apart in the source"}}, "note": "Like-named read-outs stand apart in the source and are kept apart here."}
{"binder": "WVLTAAHCL", "note": "[Kallikrein 59, 9 amino acids]", "values": [{"measurement": "relative binding ratio", "setting": "[1]", "result": 0.0018}, {"measurement": "relative binding ratio", "setting": "[2]", "result": 0.0003}, {"measurement": "relative binding ratio", "setting": "[3]", "result": 0.0001}, {"measurement": "relative binding ratio", "setting": "[4]", "result": 0.016}]}
{"binder": "LTQLGMEQHY", "note": "[PAP peptide, position 70, 10 amino acids]", "values": [{"measurement": "relative binding ratio (IC50 of standard peptide / IC50 of test peptide)", "setting": "[5]", "result": 0.62}]}
{"binder": "RAVCGGVLVH", "note": "[PSA 43, 10 amino acids]", "values": [{"measurement": "relative binding ratio (IC50 of standard peptide / IC50 of test peptide)", "setting": "[6]", "result": 0.031}]}
{"binder": "VTKFMLCAGR", "note": "[PSA position 188, 10 amino acids]", "values": [{"measurement": "relative binding ratio (IC50 of standard peptide / IC50 of test peptide)", "setting": "[7]", "result": 0.012}]}
{"binder": "GTPEGDLVYV", "note": "[Peptide 1418.29]", "values": [{"measurement": "IC50", "setting": "[8]", "result": 313, "unit": "nM"}, {"measurement": "IC50", "setting": "[9]", "result": 40, "unit": "nM"}, {"measurement": "IC50", "setting": "[10]", "result": 571, "unit": "nM"}]}
{"binder": "TLSVTWIGV", "note": "[Peptide 60.0217 (PSA.5.V9)]", "values": [{"measurement": "IC50", "setting": "[11]", "result": 4.9, "unit": "nM"}, {"measurement": "IC50", "setting": "[12]", "result": 40, "unit": "nM"}, {"measurement": "IC50", "setting": "[13]", "result": 712, "unit": "nM"}, {"measurement": "IC50", "setting": "[14]", "result": 229, "unit": "nM"}]}
{"binder": "LMLLRLSEPA", "note": "[Peptide 63.0014 (PSA.117)]", "values": [{"measurement": "IC50", "setting": "[15]", "result": 200, "unit": "nM"}, {"measurement": "IC50", "setting": "[14]", "result": 5000, "unit": "nM"}]}
{"binder": "HLLSNDMCV", "note": "[peptide 1418.20, HuK2.177.V9]", "values": [{"measurement": "IC50", "setting": "[16]", "result": 102, "unit": "nM"}, {"measurement": "IC50", "setting": "[17]", "result": 278, "unit": "nM"}]}
{"binder": "LLSNDMCARV", "note": "[peptide 1418.53, HuK2.178.V10]", "values": [{"measurement": "IC50", "setting": "[16]", "result": 0.7, "unit": "nM"}, {"measurement": "IC50", "setting": "[18]", "result": 5.3, "unit": "nM"}, {"measurement": "IC50", "setting": "[17]", "result": 4.3, "unit": "nM"}, {"measurement": "IC50", "setting": "[19]", "result": 10, "unit": "nM"}, {"measurement": "IC50", "setting": "[20]", "result": 1700, "unit": "nM"}]}
{"binder": "KVTEFMLCV", "note": "[peptide 1418.21, HuK2.191.V9]", "values": [{"measurement": "IC50", "setting": "[20]", "result": 6670, "unit": "nM"}]}
{"binder": "FMLCAGLWV", "note": "[peptide 1418.22, HuK2.195.V9]", "values": [{"measurement": "IC50", "setting": "[19]", "result": 51, "unit": "nM"}]}
{"binder": "SLSLGFLFLL", "note": "[peptide 1419.51, PAP.13]", "values": [{"measurement": "IC50", "setting": "[21]", "result": 40, "unit": "nM"}]}
{"binder": "GLHGQDLFGV", "note": "[peptide 1419.62, PAP.196.V10]", "values": [{"measurement": "IC50", "setting": "[22]", "result": 3.2, "unit": "nM"}]}
{"binder": "VLAGGFFLL", "note": "[peptide 1126.10, PSM.27]", "values": [{"measurement": "IC50", "setting": "[23]", "result": 0.2, "unit": "nM"}]}
{"binder": "RMMNDQLMFL", "note": "[peptide 1126.06, PSM.662]", "values": [{"measurement": "IC50", "setting": "[24]", "result": 40, "unit": "nM"}]}
{"binder": "ALFDIESKV", "note": "[peptide 1129.08, PSM.711]", "values": [{"measurement": "IC50", "setting": "[23]", "result": 0.7, "unit": "nM"}]}
{"binder": "DLMLLRLSEPV", "note": "[peptide 1419.13, PSA.116.V11 / HuK2.120.V11]", "values": [{"measurement": "IC50", "setting": "[25]", "result": 50, "unit": "nM"}]}
{"binder": "KLQCVDLHVV", "note": "[peptide 1419.24, PSA.166.V10]", "values": [{"measurement": "IC50", "setting": "[26]", "result": 9.5, "unit": "nM"}]}
{"binder": "DLMLLRLSEPV", "note": "[Peptide 1419.13, HuK2.120.V11]", "values": [{"measurement": "IC50", "setting": "[27]", "result": 50, "unit": "nM"}]}
{"binder": "FLRPRSLQCV", "note": "[Peptide 1419.07, HuK2.165]", "values": [{"measurement": "IC50", "setting": "[28]", "result": 4, "unit": "nM"}]}
{"binder": "SLHLLSNDMCA", "note": "[Peptide 1419.14, HuK2.175]", "values": [{"measurement": "IC50", "setting": "[27]", "result": 72, "unit": "nM"}, {"measurement": "IC50", "setting": "[28]", "result": 73, "unit": "nM"}]}
{"binder": "STCSGDSGGPL", "note": "[PSA peptide, position 203, 11 amino acids]", "values": [{"measurement": "relative binding ratio", "setting": "[29]", "result": 0.0005}, {"measurement": "relative binding ratio", "setting": "[30]", "result": 0.0092}]}
